Results published in patent US20190062438A1 (CSL, published 2019).
Substitutions are numbered along the chain they refer to.

T1: human CD131 (human, UniProt P32927 17-897)
T1 sequence: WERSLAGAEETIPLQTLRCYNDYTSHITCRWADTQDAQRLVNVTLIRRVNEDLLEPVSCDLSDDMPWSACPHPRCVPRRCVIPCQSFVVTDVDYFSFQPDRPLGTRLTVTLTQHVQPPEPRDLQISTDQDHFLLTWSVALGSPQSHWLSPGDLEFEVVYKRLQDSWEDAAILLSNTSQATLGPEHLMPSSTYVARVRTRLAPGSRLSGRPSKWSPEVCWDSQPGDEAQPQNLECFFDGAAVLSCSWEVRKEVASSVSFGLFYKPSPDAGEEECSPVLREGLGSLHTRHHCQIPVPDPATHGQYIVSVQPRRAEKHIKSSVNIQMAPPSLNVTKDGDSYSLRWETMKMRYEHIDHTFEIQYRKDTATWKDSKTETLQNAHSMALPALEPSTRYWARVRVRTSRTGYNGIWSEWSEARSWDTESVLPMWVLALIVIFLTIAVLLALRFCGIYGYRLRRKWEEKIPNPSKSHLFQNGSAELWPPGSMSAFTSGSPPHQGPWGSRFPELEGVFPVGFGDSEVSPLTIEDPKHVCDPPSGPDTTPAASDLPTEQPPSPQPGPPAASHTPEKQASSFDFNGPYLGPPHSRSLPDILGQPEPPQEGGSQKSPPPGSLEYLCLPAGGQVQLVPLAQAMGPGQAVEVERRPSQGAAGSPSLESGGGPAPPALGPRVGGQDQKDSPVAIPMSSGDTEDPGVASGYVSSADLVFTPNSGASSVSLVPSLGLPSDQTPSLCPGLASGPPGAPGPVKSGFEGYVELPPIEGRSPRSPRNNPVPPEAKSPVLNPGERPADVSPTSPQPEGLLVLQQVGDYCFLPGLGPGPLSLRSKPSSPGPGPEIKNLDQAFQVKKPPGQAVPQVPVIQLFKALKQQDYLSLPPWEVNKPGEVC

T2: soluble Homo sapiens CD131 comprising a C-terminal 6xHis tag (human, UniProt P32927 17-438)
T2 construct: truncated after Ser438, C-terminal 6xHis; also called shCD131; shβc
T2 sequence: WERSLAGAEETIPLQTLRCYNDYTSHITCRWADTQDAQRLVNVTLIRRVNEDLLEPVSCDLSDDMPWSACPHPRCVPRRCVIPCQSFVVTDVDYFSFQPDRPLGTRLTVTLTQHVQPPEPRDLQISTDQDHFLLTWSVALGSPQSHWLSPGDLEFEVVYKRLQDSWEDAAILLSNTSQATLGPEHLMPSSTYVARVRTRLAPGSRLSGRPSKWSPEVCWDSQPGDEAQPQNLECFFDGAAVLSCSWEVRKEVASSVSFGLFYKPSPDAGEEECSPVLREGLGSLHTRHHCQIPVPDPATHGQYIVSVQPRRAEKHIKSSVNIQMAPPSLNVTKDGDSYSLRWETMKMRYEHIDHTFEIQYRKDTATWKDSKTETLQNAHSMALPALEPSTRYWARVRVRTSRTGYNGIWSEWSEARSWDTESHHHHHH

B1: 9A2-VR39.111 (antibody, V domains shown)
VH: EVQLLESGGGLVQPGGSLRLSCAASGFTFPWFHFVWVRQAPGKGLEWVSSINGRGRVTYYADSVKGRFTISRDNSKNTLYLQMNSLRAEDTAVYYCARFYDSFFDIWGQGTMVTVSS
VL: DIQMTQSPSSVSASVGDRVTITCRASQGISSWLAWYQQKPGKAPKLLIYAASSLQSGVPSRFSGSGSGTDFTLTISSLQPEDFATYYCQQANSFPITFGQGTRLEIKR
B2: 9A2-VR39.109 (antibody, V domains shown)
VH: B1 VH with P30M, F32Y, F34H, V35I
VL: B1 VL
B3: 9A2-VR39.22 (antibody, V domains shown)
VH: B1 VH with P30Q, F32Y, F34V, V35I
VL: B1 VL
B4: 9A2-VR39.27 (antibody, V domains shown)
VH: B1 VH with G26R, F27T, T28S, P30M, F32Y, F34M, V35L
VL: B1 VL
B5: 9A2-VR39.28 (antibody, V domains shown)
VH: B1 VH with G26R, F27G, T28A, F29P, P30M, F32Y, F34M, V35L
VL: B1 VL
B6: 9A2-VR39.103 (antibody, V domains shown)
VH: B1 VH with P30Q, W31H, F34W
VL: B1 VL
B7: 9A2-VR39.105 (antibody, V domains shown)
VH: B1 VH with W31Y, F32Y, F34M, V35I
VL: B1 VL
B8: 9A2-VR39.102 (antibody, V domains shown)
VH: B1 VH with P30Q, F34Y, V35I
VL: B1 VL
B9: 9A2-VR39.23 (antibody, V domains shown)
VH: B1 VH with P30H, W31H, F32Y, F34T
VL: B1 VL
B10: 9A2-VR39.116 (antibody, V domains shown)
VH: B1 VH with H33V, F34M
VL: B1 VL
B11: 9A2-VR39.110 (antibody, V domains shown)
VH: B1 VH with P30V, F32Y, F34H, V35I
VL: B1 VL
B12: 9A2-VR39.98 (antibody, V domains shown)
VH: B1 VH with P30E, W31H, F32Y, F34T, V35I
VL: B1 VL
B13: 9A2-VR39.24 (antibody, V domains shown)
VH: B1 VH with P30H, W31H, F34V, V35I
VL: B1 VL
B14: 9A2-VR39.97 (antibody, V domains shown)
VH: B1 VH
VL: B1 VL
B15: 9A2-VR39.112 (antibody, V domains shown)
VH: B1 VH with W31Y, F32Y, F34Q
VL: B1 VL
B16: 9A2-VR24.111 Fab (Fab, V domains shown)
VH: EVQLLESGGGLVQPGGSLRLSCAASGFTFPWYRVHWVRQAPGKGLEWVSSIRSSGGFPMYNPHVKGRFTISRDNSKNTLYLQMNSLRAEDTAVYYCARFYDSFFDIWGQGTMVTVSS
VL: B1 VL
notes: recombinant Fab
B17: 9A2-VR24.124 Fab (Fab, V domains shown)
VH: B16 VH with P58T, M59Y, N61T, H63S, K65R
VL: B1 VL
notes: recombinant Fab
B18: 9A2-VR39.22 Fab (Fab, V domains shown)
VH: B1 VH with P30Q, F32Y, F34V, V35I
VL: B1 VL
notes: recombinant Fab
B19: 9A2-VR39.17 Fab (Fab, V domains shown)
VH: B1 VH with W31F, F32Y, F34K
VL: B1 VL
notes: recombinant Fab
B20: 9A2-VR39.177 Fab (Fab, V domains shown)
VH: B1 VH with P30S, W31H, F32Y, F34M, V35L, D62L, S63E, V64Y, G66K
VL: B1 VL
notes: recombinant Fab
B21: 9A2-VR39.24 Fab (Fab, V domains shown)
VH: B1 VH with P30H, W31H, F34V, V35I
VL: B1 VL
notes: recombinant Fab
B22: 9A2-VR39.01 Fab (Fab, V domains shown)
VH: B1 VH with P30F, F34H
VL: B1 VL
notes: recombinant Fab
B23: 9A2-VR39.93 Fab (Fab, V domains shown)
VH: B1 VH with P30S, W31H, F32Y, F34M, V35L, A61N, D62P, S63A, V64W, G66K
VL: B1 VL
notes: recombinant Fab
B24: 9A2-VR24.122 Fab (Fab, V domains shown)
VH: B16 VH with P58T, M59Y, P62S, H63E
VL: B1 VL
notes: recombinant Fab
B25: 9A2-VR39.04 Fab (Fab, V domains shown)
VH: B1 VH with P30N, H33Q, F34H, V35I
VL: B1 VL
notes: recombinant Fab
B26: 9A2-VR39.109 Fab (Fab, V domains shown)
VH: B1 VH with P30M, F32Y, F34H, V35I
VL: B1 VL
notes: recombinant Fab
B27: 9A2-VR39.110 Fab (Fab, V domains shown)
VH: B1 VH with P30V, F32Y, F34H, V35I
VL: B1 VL
notes: recombinant Fab
B28: 9A2-VR39.02 Fab (Fab, V domains shown)
VH: B1 VH with P30Y, F32Y, F34M, V35I
VL: B1 VL
notes: recombinant Fab

biological target: T1, human CD131; assay: cell-based or functional assay

| IC50 GM-CSF, TF-1 proliferation | Binder |
| --- | --- |
| 0.99 nM | B1 |
| 0.24 nM | B2 |
| 0.5 nM | B3 |
| 17.9 nM | B4 |
| 57.2 nM | B5 |
| 5.14 nM | B6 |
| 0.53 nM | B7 |
| 2.29 nM | B8 |
| 0.9 nM | B9 |
| 7.93 nM | B10 |
| 0.28 nM | B11 |
| 1.44 nM | B12 |
| 0.42 nM | B13 |
| 0.92 nM | B14 |
| 1 nM | B15 |

biological target: T2, soluble Homo sapiens CD131 comprising a …; assay: SPR, Fab over captured shCD131
Experimental: Binding kinetics were measured using SPR with a BIAcore™ A-100 instrument (GE Healthcare Life Sciences). An anti-C-terminal Hexa-His antibody (3H3) was immobilized on spots 1, 2, 4 and 5 of each flow cell of a CM-5 sensor chip (GE Healthcare Life Sciences) using amine-coupling chemistry (116). […] As shβc is a dimer, kinetics assays were performed with shβc captured on the sensor surface, and purified Fab injected as the analyte. Avidity effects were avoided by the use of Fab rather than whole IgG.
shCD131 was captured on spots 1 and 5 of each flow cell for 2 minutes at a concentration of 0.4 μg/ml. […] For some analysis purified Fab was injected over each flow cell for 3 minutes and dissociation was monitored for a further 10 minutes. Regeneration of the surface was performed after each cycle with a 40 second injection of 25 mM glycine, pH 2.0. The analysis was performed with Fabs at several concentrations between 100 and 0.31 nM, with each concentration analyzed twice and in random order. The analysis was performed at a flow rate of 30 μl/min in HBS-EP buffer (10 mM Hepes, 150 mM NaCl, 3 mM EDTA, 0.005% Tween 20, pH 7.4) at 37° C. Responses from spots 2 and 4 of each flow cell, (in which shβc was not captured, but otherwise treated identically), were subtracted from those of spots 1 and 5 respectively to produce reference subtracted data. Reference subtracted responses from a blank injection comprising buffer alone were subtracted from the resultant sensorgrams to produce double referenced data suitable for kinetic analysis. Double-referenced sensorgrams were fitted using non-linear regression to a model describing 1:1 kinetics, including a term for mass transport limitation. The Rₘₐₓ value was fitted locally to account for slight deviations in the level of sCD131 captured, with association rate (kₐ), dissociation rate (kd) and equilibrium dissociation constant (KD) fitted globally.

| Kd | koff | kon | Binder |
| --- | --- | --- | --- |
| 0.236 nM | 0.000637 s⁻¹ | 2.7e+06 M⁻¹ s⁻¹ | B16 |
| 0.25 nM | 0.00076 s⁻¹ | 2.9e+06 M⁻¹ s⁻¹ | B17 |
| 0.141 nM | 0.000441 s⁻¹ | 3.13e+06 M⁻¹ s⁻¹ | B18 |
| 0.201 nM | 0.000566 s⁻¹ | 2.81e+06 M⁻¹ s⁻¹ | B19 |
| 0.15 nM | 0.000554 s⁻¹ | 3.69e+06 M⁻¹ s⁻¹ | B20 |
| 0.169 nM | 0.0005 s⁻¹ | 2.96e+06 M⁻¹ s⁻¹ | B21 |
| 0.102 nM | 0.00031 s⁻¹ | 3.04e+06 M⁻¹ s⁻¹ | B22 |
| 0.171 nM | 0.00071 s⁻¹ | 4.15e+06 M⁻¹ s⁻¹ | B23 |
| 0.353 nM | 0.000897 s⁻¹ | 2.54e+06 M⁻¹ s⁻¹ | B24 |
| 0.329 nM | 0.00117 s⁻¹ | 3.55e+06 M⁻¹ s⁻¹ | B25 |
| 0.098 nM | 0.00033 s⁻¹ | 3.4e+06 M⁻¹ s⁻¹ | B26 |
| 0.11 nM | 0.00039 s⁻¹ | 3.8e+06 M⁻¹ s⁻¹ | B27 |
| 0.0877 nM | 0.000341 s⁻¹ | 3.89e+06 M⁻¹ s⁻¹ | B28 |
